Reference: the nanobody polyreactivity screen of Harvey et al. (2022)

assay: yeast display, Sf9 membrane polyspecificity reagent, FACS + sequencing; frameworks hold sequencing errors
Procedure, shortened: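 Galactose induction of a Saccharomyces cerevisiae BJ5465 synthetic nanobody display library ran 36–48 hours. The cells were then stained for 1 hour at 4 °C with 10% biotinylated, detergent-solubilized Sf9 membrane reagent, pulled down on streptavidin microbeads and FACS-sorted into low and high (top ~1%) gates on expression and reagent-binding fluorescence. Labels for polyreactivity follow the gate of origin.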

Sequence	polyreactivity (PSR sort gate)
QVQLVESGGGLVQAGGSLRLSCAASGRTFNTYDMGWYRQAPGKERELVAAITSRGGTTYYADSVKGRFTITRDNAKNTVYLQMNSLKPEDTAVSYCAADYYSWDYQYDYDYWGQGTQVTVSS	low polyreactivity
QVQLVESGGGLVQAGGSLRLSCAASGRTFNWYAMGWYRQAPGKERELVAAISSRGGSTYADSVKGRFTISRDNAKNTVYLQMNSLKPEDTAVYYCAARHHGTKYDYWGLGTQVTVSS	low polyreactivity
QVQLVESGGGLVQAGGSLRLSCAASGRTFNYNTMGWYRQAPGKERELVAAINKGGTRTYYADSVKGRFTISRDNAKNTVYLQMKSLNPEDTAVYYCAARIGGGSYWGQVTQVTVSS	high polyreactivity
QVQLVESGGGLVQAGGSLRLSCAASGRTFNYYAMGWYRQAPGKERELVAAISWSGTPTYYADSVKGRFTISRDNAKNTVYLQMNCLKPEDTAVYYCAAYLVSYPRGNYIRYDYWGQGTQVTVSS	low polyreactivity
QVQLVESGGGLVQAGGSLRLSCAASGRTFNYYGMGWYRQAPGKERELVAAISRGGTTNYADSVKGRFTISRDNAKNTVYLQMNSLKPEDTAVYYCAKGRSHWHSYQYVRPNYDYWGQGTQVTVSS	low polyreactivity
QVQLVESGGGLVQAGGSLRLSCAASGRTFPAYAMGWYRQAPGKERELVAAITWSGGRTYYADSVKGRFTISRDNAKNTVYLQMNSLKPEDTAVYYCAAQYRVLWYSYYYWGQGTQVTVSS	high polyreactivity
QVQLVESGGGLVQAGGSLRLSCAASGRTFPAYTMGWYRQAPGKERELVAAISRVGTTYYADSVKGRFTISRDNAKNTGYIQMNSLKPEDTAFYYCNARTWSWSFDYWGQGTLVTVSS	high polyreactivity
QVQLVESGGGLVQAGGSLRLSCAASGRTFPFNVMGWYRQAPGKERELVAAISSGGSTNYADSVKGRFTISRDNAKNTVYLQMNSLKPEDTAVYYCAAYSVYGRYGRTFYYWGQGTQVTVSS	high polyreactivity
QVQLVESGGGLVQAGGSLRLSCAASGRTFPFYAMGWYRPAPGKERELVAAIHSGGITNYADSVKGRFTISRDNAKNTVYLQMNSLKPEDYAVYDCAALTAFYRERGYWGEGTQVTVSS	low polyreactivity
QVQLVESGGGLVQAGGSLRLSCAASGRTFPGYAMGWYRQAPGKERELVASITSRGGITYYADSVKGRFTISRDNAKNTVYLQMNSLKPEDTAVYYCATDFAVTKMEYWGQGTQVTVSS	low polyreactivity
QVQLVESGGGLVQAGGSLRLSCAASGRTFPGYGMGWYRQAPGKERELVAVITSNGGITYYADSVKGRFTISRDNAKNTVYLQMNSLKPEDTAVYYCAAQNVWFYGFWRDYWGQGTQVTVSS	low polyreactivity
QVQLVESGGGLVQAGGSLRLSCAASGRTFPHYAMGWYRQAPGKERELVAAITSGGTTNYADSVKGRFTISRDNEKNTVYLQLNSLKPEDTAVYYCNADMDLDTAWDGFVAYDYWGQGTQVTVSS	low polyreactivity
QVQLVESGGGLVQAGGSLRLSCAASGRTFPIYAMGWYRQAPGKERELVAAITYSGGSTYYADSVKGRFTISRDNAKNTVYLQMNSLKPEDTAVYYCAVDGTKPYWHQRYDYWGQGTQVTVSS	low polyreactivity
QVQLVESGGGLVQAGGSLRLSCAASGRTFPIYAMGWYRQAPGKERELVASITRSGGSTYYADSVKGRFTISRDNAKNTVYLQMNSLKPEDTAVYYCAAAANSYSVYTGKFYYWGQGTQVTVSS	high polyreactivity
QVQLVESGGGLVQAGGSLRLSCAASGRTFPIYAMGWYRQARGKERELVAAITYSGGSTYYADSVKGRFTISRDNAKNTDYLQMNSQKPEDTAVYYCAVDGTKPYWHQRYDYWGQGTQVTGSS	low polyreactivity
QVQLVESGGGLVQAGGSLRLSCAASGRTFPLYDMGWYRQAPGKERELVAAISLSGGRTYYADSVKGRFTISRDNAKNTVYLQMNSLKPEDTAVYYCAARGTLSAQVGIRRYDYWGQGTQVTVSS	low polyreactivity
